Where a chain is given by its changes, count along the chain named. Numbers in names are those of the source.
B1: L-asparaginase Tli10209 (Thermococcus litoralis DSM 5473; D50G/T70A) (protein)
chain: MSEKRKLERRGAEDMKRILIIGTGGTIASAKTDAGFKSVLTIDEILEKAGIKLKNGYEIDTRNILNIDSALIQPEDWERIAKEVYKALEDYDGIVITHGTDTLAYTASMLTFMIRGINKPVVLTGSMRPVTEEESDAPRNLKAAIRFAMEDVSGIFVAFMDKIMLGCRTSKIRALGLNAFMSINYPDVAYVKGEEVIYNLPQKRFKPKGEPVLDTKYEPRVVFIRLTPGLDGNAIDALVKAGYRGIVLEGYGAGGIPYRKRDILSKIREITPQIPVVMTTQALYDGVDLTKYEVGRKALEAGIIPAKDMTKETTITKLMWALGHTKNVEEVKEIMHTNYADEIEG
B2: L-asparaginase Tli10209 (Thermococcus litoralis DSM 5473) (protein)
chain: B1 chain with G50D, A70T
B3: L-asparaginase Tli10209 (Thermococcus litoralis DSM 5473; F36Y) (protein)
chain: B1 chain with F36Y, G50D, A70T
B4: L-asparaginase Tli10209 (Thermococcus litoralis DSM 5473; K48L) (protein)
chain: B1 chain with K48L, G50D, A70T
B5: L-asparaginase Tli10209 (Thermococcus litoralis DSM 5473; D50G) (protein)
chain: B1 chain with A70T
B6: L-asparaginase Tli10209 (Thermococcus litoralis DSM 5473; T70A) (protein)
chain: B1 chain with G50D
B7: L-asparaginase Tli10209 (Thermococcus litoralis DSM 5473; F36Y/T70A) (protein)
chain: B1 chain with F36Y, G50D
B8: L-asparaginase Tli10209 (Thermococcus litoralis DSM 5473; K48L/T70A) (protein)
chain: B1 chain with K48L, G50D

Substrate: NC(=O)C[C@H](N)C(=O)O
Assay: Nessler reagent assay of ammonia, Michaelis-Menten fit
Type: biochemical, Thermococcus litoralis
Conditions: pH 10, 80 °C, 0.5-18.0 mM L-asparagine, free enzyme
Description: Nessler reagent assay of ammonia, Michaelis-Menten fit on L-asparaginase Tli10209

Protein | Km [mM] | kcat [s⁻¹] | kcat/Km [M⁻¹ s⁻¹]
B1 | 2.68 | 2050 | 764000
B2 | 6.78 | 2300 | 340000
B3 | 7.00 | 2500 | 357000
B4 | 9.62 | 5080 | 528000
B5 | 9.03 | 3890 | 431000
B6 | 7.90 | 4150 | 525000
B7 | 6.28 | 2930 | 466000
B8 | 6.65 | 2760 | 415000

— PMC11202230, “The Improved Antineoplastic Activity of Thermophilic L-Asparaginase Tli10209 via Site-Directed Mutagenesis” (Biomolecules, 2024)
